In patent US20020028482A1, “NIP45 HUMAN HOMOLOG” (priority 1997, published 2002):

T1: hNFAT1 (Homo sapiens, UniProt Q13469)
T1 construct: contains the coding region for 400-692 amino acid residues of hNFAT 1; expressed in transfected cells; host or cells: yeast strain EGY48/p8op-lacZ
T1 sequence (Q13469 400-692): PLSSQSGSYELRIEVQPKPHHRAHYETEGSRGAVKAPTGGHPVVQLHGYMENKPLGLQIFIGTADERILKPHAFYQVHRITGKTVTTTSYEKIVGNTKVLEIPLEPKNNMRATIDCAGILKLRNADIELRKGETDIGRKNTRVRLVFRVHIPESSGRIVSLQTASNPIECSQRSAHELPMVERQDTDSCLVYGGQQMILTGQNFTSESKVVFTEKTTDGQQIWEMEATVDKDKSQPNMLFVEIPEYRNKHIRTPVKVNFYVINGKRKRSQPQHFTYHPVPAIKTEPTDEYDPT


Assays:
LacZ = LacZ (Escherichia coli, UniProt P00722); settings: LacZ substrate
LacZ, sequence (P00722 whole entry): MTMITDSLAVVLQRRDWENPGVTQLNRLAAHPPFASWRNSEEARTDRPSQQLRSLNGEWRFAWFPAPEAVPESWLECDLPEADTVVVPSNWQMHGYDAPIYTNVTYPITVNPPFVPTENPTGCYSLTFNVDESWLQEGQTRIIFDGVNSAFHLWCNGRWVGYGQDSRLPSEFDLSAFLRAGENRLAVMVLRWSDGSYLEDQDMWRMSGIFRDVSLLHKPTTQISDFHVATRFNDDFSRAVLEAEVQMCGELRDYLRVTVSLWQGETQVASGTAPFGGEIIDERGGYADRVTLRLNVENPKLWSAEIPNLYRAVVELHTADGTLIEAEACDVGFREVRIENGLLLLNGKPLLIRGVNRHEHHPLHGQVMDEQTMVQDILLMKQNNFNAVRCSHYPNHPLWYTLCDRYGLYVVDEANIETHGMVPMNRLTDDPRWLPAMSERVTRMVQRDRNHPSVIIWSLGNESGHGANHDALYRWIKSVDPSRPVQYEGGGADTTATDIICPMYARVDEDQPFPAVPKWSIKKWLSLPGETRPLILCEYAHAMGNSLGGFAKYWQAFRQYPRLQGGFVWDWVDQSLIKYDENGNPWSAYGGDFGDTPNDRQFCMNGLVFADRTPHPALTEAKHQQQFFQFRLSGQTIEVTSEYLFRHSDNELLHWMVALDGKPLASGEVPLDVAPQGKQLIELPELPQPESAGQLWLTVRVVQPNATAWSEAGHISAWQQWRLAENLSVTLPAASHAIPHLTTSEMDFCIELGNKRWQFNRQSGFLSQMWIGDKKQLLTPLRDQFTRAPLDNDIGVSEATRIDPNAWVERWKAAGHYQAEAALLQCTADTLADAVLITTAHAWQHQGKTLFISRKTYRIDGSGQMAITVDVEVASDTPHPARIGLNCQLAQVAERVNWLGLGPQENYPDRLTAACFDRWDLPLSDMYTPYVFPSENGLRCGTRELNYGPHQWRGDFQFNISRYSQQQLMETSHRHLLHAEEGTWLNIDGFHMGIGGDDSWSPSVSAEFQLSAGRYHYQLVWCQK
Procedure: (1) CPRG is used rather than ONPG. […] In assays SmM (10×Km) is used which we take to be approximately saturating.
Grow yeast cultures overnight. Dilute back to OD 0.05 to 0.1 next day and allow to continue growing. When they have reached an OD of about 1, make a set of dilutions in culture medium. Add 120 ul of each dilution to the wells of a microtitre plate. Start the reaction by addition of 30 ul reaction buffer and measure the initial rate of reaction (kinetic read over 10 minutes).

hNFAT1 = target: T1, hNFAT1; experiment: yeast two hybrid assay, interaction with hNFAT1; format: binding; settings: colonies, FIG. 11 and FIG. 12
Text: A 879 bp DNA fragment, corresponding to positions 1418-2296 of hNFAT1 nucleic acid sequence (GenBank Accession number U43342), was PCR amplified via standard methods using Clontech human lymph node Marathon Ready cDNA as template. CLONTECH, Palo Alto, Calif. The resulting PCR product was cloned into the bait vector, plexA-BD (CLONTECH). The hybrid construct (plexA-BD-hNFAT1-BD) contains the coding region for 400-692 amino acid residues of hNFAT 1, which corresponds to the DNA binding region of the hNFAT 1 protein. The full length hNIP45H cNDA was cloned into prey vector pB42AD (CLONTECH). This hybrid construct (pB42AD-hNIP45H) contains the entire open reading frame of […].
Yeast strain EGY48/p8op-lacZ (CLONTECH) was transformed with the plexA-BD-hNFAT1-BD plasmid. […] Yeast strain EGY/p8op-lacZ/plexA-BD-hNFAT1-BD was subsequently transformed with pB42AD-hNIP45H prey construct. Transformants from SD/-UHW plates were subsequently tested on a 4-plate test (SD/-UHW, X-gal vs. GR/-UHW, X-gal, and SD/-UHWL vs. GR/-UHWL).

mNFATp = experiment: yeast two hybrid assay, interaction with mNFATp; format: binding, murine; settings: colonies, FIG. 11 and FIG. 12
mNFATp, sequence (Q60591 394-576 limits assumed): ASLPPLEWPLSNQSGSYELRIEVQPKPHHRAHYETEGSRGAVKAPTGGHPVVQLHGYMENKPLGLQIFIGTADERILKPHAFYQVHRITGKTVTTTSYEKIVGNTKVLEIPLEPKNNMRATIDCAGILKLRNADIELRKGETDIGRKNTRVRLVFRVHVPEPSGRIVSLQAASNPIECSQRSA
Procedure: An hNIP45 AD-fusion construct is co-transformed into the yeast host EGY48 (CLONTECH, cat # K1609-1) with the original murine LexA-NFATp bait and reporter, pSH18-34 (CLONTECH, cat# K1609-1). The functional conservation of hNIP45 is assessed by its ability of interacting with the NFATp protein to activate the reporter gene expression. Hodge, M., et al., NF-AT-Driven Interleukin-4 Transcription Potentiated by NIP45, Science, 274:1903 (1996). See, Example VI infra.

HepG2 cells = settings: overexpression in HepG2 cells; cited from earlier work

| Molecule | Km (LacZ) [µM] | interaction with hNFAT1 (hNFAT1) | interaction with mNFATp (mNFATp) | increase of endogenous IL-4 production (HepG2 cells) [fold] |
| --- | --- | --- | --- | --- |
| O=S1(=O)OC(c2ccc(O)c(Cl)c2)(c2ccc(O[C@@H]3O[C@H](CO)[C@H](O)[C@H](O)[C@H]3O)c(Cl)c2)c2ccccc21 (stereo partly drawn) [CPRG, Chlorophenol red-b-D-galacopyranoside] | ~500 |  |  |  |
| hNIP45: novel human NIP45 polypeptide, 419 amino acid residues, SEQ ID NO:3, IL-4 transcriptional trans-activator (protein, listed as Homo sapiens) MAEPVGKRGRWSGGSGAGRGGRGGWGGRGRRPRAQRSPSRGTLDVVSVDLVTDSDEEILEVATARGAADEVEVEPPEPPGPVASRDNSNSDSEGEDRRPAGPPREPVRRRRRLVLDPGEAPLVPVYSGKVKSSLRLIPDDLSLLKLYPPGDEEEAELADSSGLYHEGSPSPGSPWKTKLRTKDKEEKKKTEFLDLDNSPLSPPSPRTKSRTHTRALKKLSEVNKRLQDLRSCLSPKPPQGQEQQGQEDEVVLVEGPTLPETPRLFPLKIRCRADLVRLPLRMSEPLQSVVDHMATHLGVSPSRILLLFGETELSPTATPRTLKLGVADIIDCVVLTSSPEATETSQQLQLRVQGKEKHQTLEVSLSRDSPLKTLMSHYEEAMGLSGRKLSFFFDGTKLSGRELPADLGMESGDLIEVWG |  | interacts well |  |  |
| mNIP45: murine NIP45, NF-ATp interacting protein, 412 amino acid residues, SEQ ID NO:4 (protein, listed as Mus musculus) MAEPLRGRGPRSRGGRGARRARGARGRCPRARQSPARLIPDTVLVDLVSDSDEEVLEVADPVEVPVARLPAPAKPEQDSDSDSEGAAEGPAGAPRTLVRRRRRRLLDPGEAPVVPVYSGKVQSSLNLIPDNSSLLKLCPSEPEDEADLTNSGSSPSEDDALPSGSPWRKKLRKKCEKEEKKMEEFPDQDISPLPQPSSRNKSRKHTEALQKLREVNKRLQDLRSCLSPKQHQSPALQSTDDEVVLVEGPVLPQSSRLFTLKIRCRADLVRLPVRMSEPLQNVVDHMANHLGVSPNRILLLFGESELSPTATPSTLKLGVADIIDCVVLASSSEATETSQELRLRVQGKEKHQMLEISLSPDSPLKVLMSHYEEAMGLSGHKLSFFFDGTKLSGKELPADLGLESGDLIEVWG |  | does not interact with hNFAT1 very well | interacts well | 200 |
